The text below walks through data of patent publication US7067274B2, “Compositions and methods for the screening pro-apoptotic compounds” (Genentech, Inc., priority 2003, dated 2006).

In one test the target is T1, ΔCARD human caspase 9 (Homo sapiens, UniProt P55211, D305A/E304A/E306A).
T1 construct: made in house
T1 sequence (P55211 139-315 E304A/D305A/E306A limits assumed): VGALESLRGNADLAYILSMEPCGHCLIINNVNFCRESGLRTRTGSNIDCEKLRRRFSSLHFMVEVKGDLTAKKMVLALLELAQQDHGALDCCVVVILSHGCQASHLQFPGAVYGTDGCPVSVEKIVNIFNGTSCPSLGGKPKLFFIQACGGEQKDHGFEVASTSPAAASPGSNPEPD
T1 sequence (P55211 316-416 limits assumed): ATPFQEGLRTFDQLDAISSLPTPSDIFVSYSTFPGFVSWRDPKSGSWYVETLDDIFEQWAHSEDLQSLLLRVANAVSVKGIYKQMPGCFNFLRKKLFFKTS
Description: Determination of caspase-9 inhibitory constants (Ac-LEHD-AFC hydrolysis). The test is classed as biochemical. The settings on record: for Ki: read-out: Caspase-9 inhibition Ki(app). Here is the method: ΔCARD (caspase recruitment domain) human caspase 9 (lacking the first 138 residues) with Ala substitutions at residues 304 to 306 was produced as described previously (Boatright et al., (2003) Mol Cell 11: 529–541). The third BIR of […] (residues 252–348) was also prepared as described previously (Sun et al., (2000) J Biol Chem 275(43): 33777–81).
Determination of Caspase-9 Inhibitory Constants: Recombinant ΔCARD caspase 9 (300 nM final concentration in the assay) was preactivated in salt-free caspase buffer (20 mM PIPES, 10 mM EDTA, 0.1% CHAPS and 10% (w/v) sucrose, pH 7.2) for 15 min at 37° C. Following this, a range of inhibitor concentrations were preincubated with the enzyme for 20 min at 37° C. The assay was started by the addition of Ac-LEHD-AFC (100 μM final concentration) and measured kinetically for 30 min using an fmax Fluorescence Plate Reader (Molecular Devices) at an excitation wavelength of 405 nm and an emission wavelength of 510 nm. Reaction mixtures were thermostatically controlled at 37° C. The individual Ki values for the inhibitors [I] were determined from the uninhibited substrate hydrolysis rate (vo) and the inhibited rates (vi), so that a plot of (vo/vi)−1 against [I] gives Ki(app), the equilibrium inhibition constant in the presence of substrate (Salvesen and Nagase, (1989) Proteolytic enzymes: A practical approach. R. J. Beynon and J. S. Bond. Oxford, IRL Press: 83–104).

For a further test, the target named is T2, caspase-9 (Homo sapiens, UniProt P55211).
T2 sequence (P55211 1-416): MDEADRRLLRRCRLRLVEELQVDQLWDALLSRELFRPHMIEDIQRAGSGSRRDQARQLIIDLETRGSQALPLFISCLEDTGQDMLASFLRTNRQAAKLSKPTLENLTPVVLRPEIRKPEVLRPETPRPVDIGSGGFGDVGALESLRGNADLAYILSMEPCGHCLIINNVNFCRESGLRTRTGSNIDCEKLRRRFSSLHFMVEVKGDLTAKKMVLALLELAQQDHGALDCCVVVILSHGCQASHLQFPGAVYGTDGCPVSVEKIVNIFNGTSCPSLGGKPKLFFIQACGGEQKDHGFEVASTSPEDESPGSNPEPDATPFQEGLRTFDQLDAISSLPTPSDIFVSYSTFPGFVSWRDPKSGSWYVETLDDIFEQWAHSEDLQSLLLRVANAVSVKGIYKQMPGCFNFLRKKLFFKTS
As to conditions: literature; read-out: inhibition constant, caspase-9; cited from earlier work.

Test [1] addresses Hid-FAM (5-carboxyflourescein-conjugated AVPFAK(5-FAM)K). Nature of the test: Fluorescence polarization affinity measurement with Hid-FAM probe. The settings on record: 5 nM Hid-FAM, apparent Kd from EC50. The test is classed as binding. Here is the method:
Polarization experiments were performed on an Analyst™ HT 96-384 (Molecular Devices Corp.). […] The reactions were read after an incubation time of 10 minutes at room temperature with standard cut-off filters for the fluorescein fluorophore (λex=485 nm; λem=530 nm) in 96-well black HE96 plates (Molecular Devices Corp.). Fluorescence polarization values were plotted as a function of the protein concentration, and the EC50 values were obtained by fitting the data to a 4-parameter equation using Kaleidagraph™ software (Synergy software, Reading, Pa.). The apparent Kd values were determined from the EC50 values.
(§1) The binding affinity of the Hid-FAM probe for each of the BIR domains was determined directly using a fluorescence polarization-based assay and the result is shown graphically in FIG. 8.
Background: Polarisation of emitted light reports the rotation of a fluorescent probe.

The test system of another test is MCF7 cells. Description: Inhibition of doxorubicin-induced apoptosis in transfected MCF7 cells. The format is cell-based. As to conditions: MCF7 cells transiently transfected, doxorubicin 0.5 μg/ml. How it is done:
MCF7 cells were transiently transfected with the reporter plasmid pCMV-βgal and either vector control alone or BIR domain constructs. Following transfection, cells were exposed to doxorubicin (adriamycin; 0.5 μg/ml), stained with X-gal and apoptosis assessed by counting live and dead transfected cells. Percentage apoptosis represents the mean value of at least four sample points and is representative of three independent experiments.

Test [2] addresses wild-type mature Smac protein. Nature of the test: Fluorescence polarization competition assay, mature Smac protein. As to conditions: competition with 5 nM Hid-FAM probe, Ki from IC50. The test is classed as binding, human. Here is the method: A PCR product containing amino acids 56–239 of Smac/DIABLO (accession number SMAC_HUMAN) was cloned into the XbaI/XhoI sites of a pet21b+ (Novagen) generating a C-terminal His6 fusion. Pet21bSmac was transformed into Escherichia coli strain BL21(DE3) competent cells (Stratagene). Overnight cultures were diluted 1:100 and grown at 37° C. in LB media with 50 μg/ml carbenicillin to an A600 of 0.8 with vigorous shaking. Isopropyl-β-D-1-thiogalactopyranoside (IPTG) was added to a final concentration of 1 mM and cultures were grown overnight at 16° C. Cell pellets were resuspended in Buffer A (50 mM Tris (pH 8.0), 300 mM NaCl, 0.5 mM PMSF, 2 mM benzamidine, 5 mM β-mercaptoethanol) with 5 mM imidazole and placed on ice for 30 minutes. Cells were homogenized, microfluidized, and centrifuged at 15,000 rpm for 45 minutes. Supernatant was loaded onto a Ni-NTA agarose column (Qiagen™), washed with 10 column volumes Buffer A with 10 mM imidazole, and eluted with 10 column volumes Buffer A with 300 mM imidazole. Fractions containing Smac protein were pooled, concentrated and loaded on a Superdex™ 200 sizing column. Protein eluted over one column volume into 50 mM Tris (pH 7.6), 300 mM NaCl, 0.5 mM PMSF, 2 mM benzamidine and 5 mM DTT. Fractions containing Smac protein were pooled and dialyzed against 3 changes of buffer containing 50 mM Tris (pH 7.6), 0.5 mM PMSF, 2 mM benzamidine and 5 mM DTT. The dialyzed sample was loaded onto a Q-Sepharose™ FF column (Pharmacia) and eluted over a 10 column volume gradient from zero to 1 M NaCl in buffer 50 mM Tris (pH 7.6), 0.5 mM PMSF, 2 mM benzamidine and 5 mM DTT. The cDNA encoding full-length ML-IAP plus a N-terminal His6-tag was cloned into the pET15b(+) expression vector (Novagen). ML-IAP was expressed in E. coli strain BL21(DE3)pLysS. […] The protein concentration of purified proteins was determined from the absorbance at 280 nm based on the molar absorption coefficients calculated from the Edelhoch relationship (Edelhoch, (1967) Biochemistry 6: 1948–1954).
Samples were read after a 10-minute incubation. Fluorescence polarization values were plotted as a function of the antagonist concentration, and the IC50 values were obtained by fitting the data to a 4-parameter equation using Kaleidagraph™ software (Synergy software; Reading, Pa.). Inhibition constants (Ki) for the antagonists were determined from the IC50 values (Keating et al., (2000) Putting the pieces together: contribution of fluorescence polarization assays to small-molecule lead optimization. Proceedings of SPIE: In-Vitro Diagnostic Instrumentation.).
as §1

[3] abbreviates: 300 nM ΔCARD caspase 9, 100 μM Ac-LEHD-AFC, 37° C.

Numbering of substitutions follows the chain as printed. Entries after “also recorded” stand apart in the source; their conditions may differ. Read-outs that look alike come from different tables or passages of the source. Some results are limits rather than exact numbers.

B1: ML-IAP: full-length melanoma inhibitor of apoptosis protein with N-terminal His6-tag (protein)
chain: MGPKDSAKCLHRGPQPSHWAAGDGPTQERCGPRSLGSPVLGLDTCRAWDHVDGQILGQLRPLTEEEEEEGAGATLSRGPAFPGMGSEELRLASFYDWPLTAEVPPELLAAAGFFHTGHQDKVRCFFCYGGLQSWKRGDDPWTEHAKWFPSCQFLLRSKGRDFVHSVQETHSQLLGSWDPWEEPEDAAPVAPSVPASGYPELPTPRREVQSESAQEPGGVSPAEAQRAWWVLEPPGARDVEAQLRRLQEERTCKVCLDRAVSIVFVPCGHLVCAECAPGLQLCPICRAPVRSRVRTFLS
modifications: left off: small tags and cut ends
On to B1, for which, in the test with ΔCARD human caspase 9, the Ki was in the range of 3000 to 5000 nM. In the test with ΔCARD human caspase 9 (relative to XIAP), the “fold lower potency for inhibition of caspase-9 activity relative to XIAP” value is reported as roughly 300 fold.

B2: XIAP-BIR3: third BIR domain of XIAP (residues 252–348) (protein)
chain: NSTNLPRNPSMADYEARIFTFGTWIYSVNKEQLARAGFYALGEGDKVKCFHCGGGLTDWKPSEDPWEQHAKWYPGCKYLLEQKGQEYINNIHLTHSL
modifications: left off: small tags and cut ends
B2: the results for the Ki (with ΔCARD human caspase 9 (setting [3]); in the test with caspase-9; in test [2]) were 13 nM, 10 to 20 nM and 320 nM, respectively. Also, the Kd in test [1] turned out to be 105 nM. Moreover, the “inhibition of doxorubicin-induced apoptosis” value with MCF7 cells is on record as “confers resistance”.

B3: MLXBIR3: ML-IAP-BIR in which amino acids 160–179 were replaced with amino acids 336–348 of XIAP-BIR3 (protein)
chain: TEEEEEEGAGATLSRGPAFPGMGSEELRLASFYDWPLTAEVPPELLAAAGFFHTGHQDKVRCFFCYGGLQSWKRGDDPWTEHAKWFPSCQFLLRSKGQEYINNIHLTHSL
modifications: left off: small tags and cut ends
As to B3, in the test with ΔCARD human caspase 9 (setting [3]), the Ki was determined as 962 nM. Also, the “fold less potent at inhibiting caspase-9 than XIAP-BIR3” value in the test with ΔCARD human caspase 9 (relative to XIAP-BIR3) is reported as roughly 70 fold. In the test with ΔCARD human caspase 9 (relative to wild-type ML-IAP-BIR construct of the same length), the “fold better at inhibiting caspase-9 than MLBIR-Q” value was roughly 5 fold. Moreover, the Kd in test [1] turned out to be 21 nM. In the test with MCF7 cells, the “inhibition of doxorubicin-induced apoptosis” value was “confers resistance”.

B4: MLBIR-Q: C-terminally truncated version of ML-IAP-BIR with the same number of amino acids as MLXBIR3 and MLXBIR3SG (protein)
chain: B3 chain with Q98R, E99D, Y100F, I101V, N102H, N103S, I104V, H105Q, L106E, L110Q
modifications: left off: small tags and cut ends
As to B4, the Ki with ΔCARD human caspase 9 (setting [3]) is 4600 nM; in test [2], 54 nM. Besides, the Kd in test [1] stood at 20 nM.

B5: MLXBIR3SG: MLXBIR3 chimera with Ser 150 of ML-IAP-BIR mutated to Gly (SEQ ID NO:2) (protein)
chain: MGSSHHHHHHSSGLVPRGSHMLETEEEEEEGAGATLSRGPAFPGMGSEELRLASFYDWPLTAEVPPELLAAAGFFHTGHQDKVRCFFCYGGLQSWKRGDDPWTEHAKWFPGCQFLLRSKGQEYINNIHLTHSL
modifications: Homo sapien
Take B5: the Ki with ΔCARD human caspase 9 (setting [3]) is less than 1 nM; in test [2], 59 nM. The “inhibition of doxorubicin-induced apoptosis” value in the test on MCF7 cells is “significantly more efficient; also recorded: confers resistance”.
